The values below come from patent US12319941B2, “Thermophilic recombinant type II pullulanase and application thereof” (Jiangnan University, priority 2019, dated 2025).

“Also recorded” adds a separate entry of the source. Where two headings read alike, the source gives them in different places.

Data set [1] deals with recombinant type II pullulanase Sumo-PulPy. Nature of the data set: Effect of metal ions and chemical reagents on the enzyme activity of Sumo-PulPy. It counts as biochemical, Pyrococcus yayanosii CH1. To be noted: for Relative enzyme activity (%): pH 6.6; for effect on the enzyme activity of Sumo-PulPy (in words): reagent added to enzymatic reaction system.
Data set [2] is classed as biochemical. To be noted: for optimum temperature: potassium phosphate buffer, 75-100° C. As for the experimental part:
(§1) The determination of the activity of recombinant type II pullulanase Sumo-PulPy was adopted the 3,5-dinitrosalicylic acid (DNS) method. The specific steps were as follows: reacting 100 μL reaction system (10 μL potassium phosphate buffer with different pH with a final concentration of 100 mM, 50 μL pullulan with a final concentration of 3% and 40 μL enzyme solution) at a certain temperature for 15 min, adding 100 μL DNS reaction solution, boiling in a water bath for 6 min, immediately cooling to room temperature with running water, adding and diluting with distilled water, mixing well, and determining […]. One enzyme activity unit (U) was defined as the amount of enzyme required to release reducing sugar correspond to the reduction capacity of 1 μmol glucose per minute under assay conditions.
Determination of the optimum temperature of the enzyme: the enzymatic reaction was performed in a potassium phosphate buffer (pH 6.6) at 75-100° C.
Determination of the thermal stability of the enzyme: the enzyme solution with the same amount of enzyme was placed under the conditions of 80° C., 90° C., 95° C. and 100° C., respectively, and disposed for 2 h, 4 h, 6 h, 8 h and 10 h, respectively, and the enzymatic reaction was performed at pH 6.6 and 95° C. to determine the remaining enzyme activity of Sumo-PulPy.

Data set [3] can be described thus: DNS method enzyme activity and kinetic parameters (Lineweaver-Burk) with pullulan as substrate. It counts as biochemical. To be noted: for Km / Vmax: pullulan 1.25-40 mg/mL, optimum conditions. As to the method:
as §1
Using different concentrations of pullulan (1.25, 2.5, 5, 10, 20, and 40 mg/mL) as the substrate, the enzyme activity was determined under the optimum conditions, the corresponding reaction rate was calculated, and Km value and Vmax were obtained by Linewear Burk method using Michaelis-Menten Equation.

Data set [4] is described as follows: Analysis of degradation products of pullulan (HPLC). It counts as biochemical. To be noted: 1% pullulan, 95° C., 6 h. As to the method:
(§2) The sample processing procedure was as follows: an appropriate amount of pure enzyme solution was mixed well with 1% pullulan and 1% Amylose from potato respectively, enzymatically hydrolyzed at 95° C. for 6 h, cooled to room temperature and then centrifuged at 12000 r/min for 20 min. And the supernatant was taken. The enzymatic hydrolysis products of pullulan and Amylose from potato were analyzed using high performance liquid chromatography (HPLC, conditions: Hpersil NH2 amino column (4.6×250 mm), column temperature 40° C., mobile phase (acetonitrile:water=67:33), flow rate 1.0 mL/min, injection volume 20 μL) and MALDI-TOF/TOF matrix-assisted laser […]/ionization tandem time-of-flight mass spectrometer respectively.

Data set [5] can be described thus: Optimum pH and pH stability of the enzyme. To be noted: for optimum pH: 100 mM potassium phosphate buffer pH 5.8-8.0; for pH stability / pH tolerance: between pH 5.8 and 8.0. It counts as biochemical. As to the method: as §1
Determination of the optimum pH: the purified Sumo-PulPy was subjected to enzymatic reaction in 100 mM potassium phosphate buffer (pH 5.8-8.0) at 95° C.
Determination of the pH stability of the enzyme: the enzyme solution was added into 100 mM potassium phosphate buffer (pH 5.8-8.0) and disposed at 4° C. for 4 h, and then the enzymatic reaction was performed at pH 6.6 and 95° C. to determine the remaining enzyme activity of Sumo-PulPy. […] Except for a 12% loss of enzyme activity after disposal at pH 5.8 for 4 h, the rest has almost no effect on the enzyme activity (FIG. 4).

Data set [6] in a line: Analysis of degradation products of Amylose from potato (MALDI-TOF/TOF). It counts as biochemical. To be noted: 1% Amylose from potato, 95° C., 6 h. As to the method: as §2
[7] abbreviates: reagent 2 mM, 100% = no reagent, 95° C.
Setting [8] is: reagent 1%, 100% = no reagent, 95° C.

As to `[Ca+2].[Cl-].[Cl-]` [CaCl2], the “Relative enzyme activity (%)” value in data set [1] (setting [7]) is 71.3 ± 3.5%.

In the case of `[Cl-].[Cl-].[Co+2]` [CoCl2], the “Relative enzyme activity (%)” value in data set [1] is 150.0 ± 4.8%.

For `[Cl][Cu][Cl]` [CuCl2], in data set [1] (setting [7]), the “Relative enzyme activity (%)” value turned out to be 45.9 ± 3.5%.

Consider `O[C@@H](CS)[C@@H](O)CS` [DTT], for which the “Relative enzyme activity (%)” value in data set [1] (setting [8]) amounted to 337.2 ± 4.7%.

`O=S(=O)([O-])[O-].[Fe+2]` [FeSO4]: the “Relative enzyme activity (%)” value in data set [1] (setting [7]) turned out to be 183.1 ± 4.0%.

Turning to `[Cl-].[K+]` [KCl], the “Relative enzyme activity (%)” value in data set [1] (setting [7]) stood at 104.1 ± 3.0%. Further, the “effect on the enzyme activity of Sumo-PulPy (in words)” value (from here on “effect on the enzyme activity”) in data set [1] was “weakly promote”.

Turning to `[Cl-].[Cl-].[Mg+2]` [MgCl2], in data set [1] (setting [7]), the “Relative enzyme activity (%)” value stood at 94.9 ± 3.4%.

For the molecule `[Cl][Mn][Cl]` [MnCl2], the “Relative enzyme activity (%)” value in data set [1] (setting [7]) came to 91.2 ± 2.9%.

With `[Cl-].[Na+]` [NaCl], the “Relative enzyme activity (%)” value in data set [1] is recorded as 81.1 ± 4.2%.

`O=S(=O)([O-])[O-].[Ni+2]` [NiSO4]: the “Relative enzyme activity (%)” value in data set [1] (setting [7]) came to 73.3 ± 3.3%.

For the molecule `CCCCCCCC/C=C\CCCCCCCC(=O)OCCOCC(OCCO)C1OCC(OCCO)C1OCCO` (centres unmarked) [Tween-80], the “Relative enzyme activity (%)” value in data set [1] (setting [8]) is listed as 110.8 ± 2.9%. In addition, the “effect on the enzyme activity” value in data set [1] was “weakly promote”.

As to `O=S(=O)([O-])[O-].[Zn+2]` [ZnSO4], the “Relative enzyme activity (%)” value in data set [1] (setting [7]) is on record as 0%.

On to `OCCS` [β-mercaptoethanol], for which the “Relative enzyme activity (%)” value in data set [1] (setting [8]) is 157.4 ± 3.0%.

Take Triton X-100: the “Relative enzyme activity (%)” value in data set [1] (setting [8]) is listed as 111.1 ± 3.6%. Besides, the “effect on the enzyme activity” value in data set [1] was “weakly promote”.

B1: Sumo-PulPy: thermophilic recombinant type II pullulanase from Pyrococcus yayanosii CH1 (SEQ ID NO:1) with His and Sumo tags, expressed in E. coli (protein)
chain: MGHHHHHHMSDSEVNQEAKPEVKPEVKPETHINLKVSDGSSEIFFKIKKTTPLRRLMEAFAKRQGKEMDSLRFLYDGIRIQADQTPEDLDMEDNDIIEAHREQIGGQRGSRRVLSLFVVFVVLGSLLALQPEVKAGEPKPLNVIIVWHQHQPYYYDPVQGIYTRPWVRLHAANNYWKMAYYLSKYPDVHATIDLSGSLIAQLADYMNGAKDIYQIITEKIAKGEPLTVEEKWLMLQAPGGFFDHTIPWNGEPVTDKNGNPIRDFWNRYTELKNKMLQAKAKYANLPLEEQKVAVTNEFTEQDYIDLAVLFNLAWIDYNYIMNTPELKALYEKVDEGGYTREDVRTVLKHQMWLLNHTFEEHEKINLLLGNGNVEVTVVPYAHPIGPILNDFGWEEDFDAHVKKAHELYKKYLGAGKVTPKGGWAAESALNDKTLEILAENGWQWVMTDQLVLQKLGIPYTVENYYKPWVAEFNGRKIYLFPRDHALSDRVGFTYSGMNQYQAVEDFINELLRIQKQNYDGSLVYVITLDGENPWEHYPYDGKLFLETLYKRLTELQRQGLIRTLTPSEYIKLYGDKANKLTPQMMERLDLTGDNVEALLKAQSLGELYDMIGVKEEMQWPESSWIDGTLSTWIGEPQENYGWYWLYLARKALMAQKDKMSQENWEKAYEYLLRAEASDWFWWYGSDQSSGQDYTFDRYFKTYLYEIYRLAGLEPPSYLYGNYFPDGEPYTIRALEGLGEGQVKEYSSMSPLAEGVSVYFDGEGVHFVVKGNLEKFEISIYEKGERVGNTFTLLQERPGELKYSLFPFSRDSVGLLITKHVVYRDGKAEIYAATDYENTEKVGEASVKQVDGGVEIVVPFDYIKTPEDFYFAVSTVKDGELEIITTPIELKLPMEVKGVPIVDVVDPEGDDYGPGTYTYPTDPVFVPHHLDLLRFRILEQTDAYVMEFYFKELGGNVWNAPNGFSLQIIEVYLDFREGGNTSAIKMFPDGPGANVNLDPEHPWDLALRIAGWDYGNLIVLPNGTVYQGELQISADPVNNKIIVKVPKKYIQIDEDYGLWGVVLVGSQDGYGPDKWRPVAVEAEQWRLGGADQQAVIDNLAPRVVDLLVPEGFKPTQEEQLSSYDLEKKILATVLMIPLIEGSGGEEPAETPRETAIPAESPTTTEAPTETQSTTTSQGPTETQTGGGICGPVALLGLVMTPLLLRRRR
modifications: His and Sumo tags; Protein translated from synthetic DNA
With B1, the “remaining enzyme activity after heat preservation at 95° C. for 10 h” value in data set [2] (10 h) is “greater than 50%”. The molecule also displayed an optimum temperature in data set [2] of 95 °C. Further, in data set [3], the specific enzyme activity was 5.37±0.20 U/mg; the Michaelis-Menten constant (Km) (as a rule, the substrate concentration at which the rate is half of its maximum) was determined as 8.78 ± 0.89 mg/mL; the Vmax came out at 5.37±0.20 U/mg. This molecule also yielded a specific enzyme activity in data set [3] (95° C. and pH 6.6, no metal ions or chemical reagents added) of 5.37±0.20 U/mg. Besides, in data set [4], the pullulan hydrolysates result is given as “most of the pullulan hydrolysates are maltotriose”. Also, in data set [5], the “optimum pH” value is reported as 6.6 and the “pH stability / pH tolerance” value is “better pH tolerance; also recorded: very stable”. Moreover, the “loss of enzyme activity after disposal at pH 5.8 for 4 h” value in data set [5] (4° C., 4 h, pH 5.8, then assay at pH 6.6 and 95° C.) was 12%. Moreover, the “hydrolysate of Amylose from potato” value in data set [6] is “mainly oligosaccharides such as pentasaccharides, hexasaccharides, heptasaccharides, and octasaccharides”.

B2: Δ28N+Δ791C: combined truncation mutant of PulPy: first 28 N-terminal amino acids and amino acids after position 790 deleted (SEQ ID NO:3) (protein)
chain: MGHHHHHHMSDSEVNQEAKPEVKPEVKPETHINLKVSDGSSEIFFKIKKTTPLRRLMEAFAKRQGKEMDSLRFLYDGIRIQADQTPEDLDMEDNDIIEAHREQIGGQRGSPKPLNVIIVWHQHQPYYYDPVQGIYTRPWVRLHAANNYWKMAYYLSKYPDVHATIDLSGSLIAQLADYMNGAKDIYQIITEKIAKGEPLTVEEKWLMLQAPGGFFDHTIPWNGEPVTDKNGNPIRDFWNRYTELKNKMLQAKAKYANLPLEEQKVAVTNEFTEQDYIDLAVLFNLAWIDYNYIMNTPELKALYEKVDEGGYTREDVRTVLKHQMWLLNHTFEEHEKINLLLGNGNVEVTVVPYAHPIGPILNDFGWEEDFDAHVKKAHELYKKYLGAGKVTPKGGWAAESALNDKTLEILAENGWQWVMTDQLVLQKLGIPYTVENYYKPWVAEFNGRKIYLFPRDHALSDRVGFTYSGMNQYQAVEDFINELLRIQKQNYDGSLVYVITLDGENPWEHYPYDGKLFLETLYKRLTELQRQGLIRTLTPSEYIKLYGDKANKLTPQMMERLDLTGDNVEALLKAQSLGELYDMIGVKEEMQWPESSWIDGTLSTWIGEPQENYGWYWLYLARKALMAQKDKMSQENWEKAYEYLLRAEASDWFWWYGSDQSSGQDYTFDRYFKTYLYEIYRLAGLEPPSYLYGNYFPDGEPYTIRALEGLGEGQVKEYSSMSPLAEGVSVYFDGEGVHFVVKGNLEKFEISIYEKGERVGNTFTLLQERPGELKYSLFPFSRDSVGLLITKHVVYRDGKAEIYAATDYENTEKVGEASVKQVDGGVEIVVPFDYIKTPEDFYFAVSTVKDGELEIITTPIELKLPMEVKGVP
modifications: Protein translated from synthetic DNA
Consider B2, for which, in data set [2], the “improvement of optimum temperature compared with Sumo-PulPy” value is 5 °C, the “thermal stability at 100° C. compared with Sumo-PulPy” value is recorded as “slightly improves” and the optimum temperature was determined as 100 °C. For the same molecule, the “remaining enzyme activity after heat preservation at 100° C. for 2 h” value in data set [2] (2 h) is reported as “greater than 60%”. In addition, in data set [3], the specific enzyme activity stood at 32.18±0.92 U/mg, the “specific enzyme activity relative to Sumo-PulPy” value is recorded as 5.99 times, the Km was found to be 6.63 ± 0.56 mg/mL and the Vmax is recorded as 32.18±0.92 U/mg. Moreover, in data set [5], the “optimum pH” value was 6.4 and the “pH stability / pH tolerance” value is reported as “good pH tolerance”.
